The target of assay [1] is T1, HalM2 (haloduracin lanthipeptide synthetase) (Bacillus halodurans C-125). Nature of the assay: fluorescence polarisation. (In general: Fluorescence polarisation rises when a labelled molecule tumbles more slowly, as on binding a larger partner.)
For assay [2], the target named is T1, HalM2 (haloduracin lanthipeptide …). In words: fluorescence polarisation. The source holds these as a separate data set.

The term IC50 denotes the point on the concentration scale where inhibition reaches its midpoint. Read a low IC50 as inhibition by little substance. Usually Ki stands for the dissociation constant of the complex between target and ligand, obtained from inhibition or displacement. Broadly, the Kd is the free concentration of one partner at which half of the binding sites on the other are occupied at equilibrium, for simple one-to-one binding. A low value points to tighter binding.

Where no end group is shown, it is not given here.

B1: HalA1 leader peptide (peptide)
chain: MTNLLKEWKMPLERTHNNSNPAGDIFQELEDQDILAGIEGR
In assay [1], B1 had an IC50 of 4.1 ± 1.1 µM and a Ki of 4.1 ± 1.1 µM.

B2: fluorescein-labeled HalA2 leader peptide (peptide)
chain: MVNSKDLRNPEFRKAQGLQFVDEVNEKELSSLAGSGDIEGR
modifications: also: 5-FAM on short synthetic peptide ligated to introduced N-terminal Cys
In assay [2], B2 showed a Kd of 3.7 ± 1.3 µM.
